Key:
PP1 = assay: spinophilin IP, spectral counting by MS; settings: reference: intact (contralateral) striatum; sites S17,S100
[1] = molecular target: HA-tagged spinophilin (human) (UniProt Q96SB3); assay: co-IP; HEK293 cells co-transfected with HA-spinophilin, V5-NF-M and kinase dead K72H myc-PKAc; low-ionic Tris buffer with 1% Triton X-100; HA or V5 immunoprecipitation, immunoblot
Chain of UniProt Q96SB3 (Q96SB3 whole entry): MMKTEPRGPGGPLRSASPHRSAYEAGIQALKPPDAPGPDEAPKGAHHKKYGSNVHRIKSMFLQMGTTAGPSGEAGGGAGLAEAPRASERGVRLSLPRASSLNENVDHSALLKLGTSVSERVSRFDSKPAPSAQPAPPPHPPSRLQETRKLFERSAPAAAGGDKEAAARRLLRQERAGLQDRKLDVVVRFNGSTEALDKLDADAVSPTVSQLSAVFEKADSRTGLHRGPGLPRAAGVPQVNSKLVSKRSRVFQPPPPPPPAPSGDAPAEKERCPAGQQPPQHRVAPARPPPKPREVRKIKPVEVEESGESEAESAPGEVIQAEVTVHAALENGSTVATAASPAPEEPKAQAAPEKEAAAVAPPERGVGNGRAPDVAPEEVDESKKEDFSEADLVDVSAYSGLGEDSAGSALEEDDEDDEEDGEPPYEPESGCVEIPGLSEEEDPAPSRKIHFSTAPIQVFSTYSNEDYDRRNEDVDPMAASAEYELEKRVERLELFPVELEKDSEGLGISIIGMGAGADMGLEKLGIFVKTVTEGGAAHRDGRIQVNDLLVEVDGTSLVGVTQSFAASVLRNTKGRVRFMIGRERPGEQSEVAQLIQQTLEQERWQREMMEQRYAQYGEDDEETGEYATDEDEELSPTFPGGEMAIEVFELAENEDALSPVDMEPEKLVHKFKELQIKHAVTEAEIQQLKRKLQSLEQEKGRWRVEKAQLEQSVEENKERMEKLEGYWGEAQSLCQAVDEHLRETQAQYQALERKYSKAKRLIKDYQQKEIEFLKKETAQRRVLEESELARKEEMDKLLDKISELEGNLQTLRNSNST

Chain of spinophilin (Q6R891 whole entry, looked up, stated change not applied): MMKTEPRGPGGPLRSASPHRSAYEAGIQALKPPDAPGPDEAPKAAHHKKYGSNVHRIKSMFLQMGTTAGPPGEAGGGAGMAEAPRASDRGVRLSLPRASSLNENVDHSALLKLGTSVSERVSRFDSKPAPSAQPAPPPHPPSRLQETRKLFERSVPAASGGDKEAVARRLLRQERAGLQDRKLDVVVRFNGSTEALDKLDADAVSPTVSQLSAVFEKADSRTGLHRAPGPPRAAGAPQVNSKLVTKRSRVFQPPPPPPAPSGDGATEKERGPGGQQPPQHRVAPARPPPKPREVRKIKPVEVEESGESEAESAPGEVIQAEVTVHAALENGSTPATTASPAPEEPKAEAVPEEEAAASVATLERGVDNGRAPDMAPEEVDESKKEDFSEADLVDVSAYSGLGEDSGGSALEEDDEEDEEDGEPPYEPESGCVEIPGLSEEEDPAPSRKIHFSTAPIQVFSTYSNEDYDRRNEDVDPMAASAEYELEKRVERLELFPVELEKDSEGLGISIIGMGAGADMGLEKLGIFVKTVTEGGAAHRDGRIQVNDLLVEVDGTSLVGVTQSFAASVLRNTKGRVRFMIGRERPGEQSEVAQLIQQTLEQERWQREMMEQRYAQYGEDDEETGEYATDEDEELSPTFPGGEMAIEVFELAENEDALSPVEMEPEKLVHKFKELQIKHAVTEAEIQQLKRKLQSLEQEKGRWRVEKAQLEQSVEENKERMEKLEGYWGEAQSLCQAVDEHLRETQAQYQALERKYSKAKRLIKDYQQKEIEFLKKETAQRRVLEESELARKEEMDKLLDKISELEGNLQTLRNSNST

Row | Substance | other: percent increase over reference (PP1) | percent reduction of the association against wild type PKAc [1]
1 | spinophilin (from UniProt Q6R891) 6-OHDA-lesioned (ipsilateral) striatum | 28% | 
2 | kinase dead (K72H mutant) myc-tagged PKAc (enzyme) |  | 63%

— article PMC5467389
